Data reported in article PMC12347638, “Fungal Laccases with High and Medium Redox Potential: Is the T1 Center Potential a Key Characteristic of Catalytic Efficiency in Heterogeneous and Homogeneous Reactions?” (International Journal of Molecular Sciences, 2025).

Columns and labels:
[1] = substrate: CCn1c(=NN=c2sc3cc(S(=O)(=O)O)ccc3n2CC)sc2cc(S(=O)(=O)O)ccc21; assay: purified protein; type: biochemical, Metuloidea murashkinskyi; settings: air-saturated 0.1 M Na-citrate-phosphate buffer, pH 5.5, 23 °C, O2 co-substrate, free enzyme
[2] = substrate: CCn1c(=NN=c2sc3cc(S(=O)(=O)O)ccc3n2CC)sc2cc(S(=O)(=O)O)ccc21; assay: purified protein; type: biochemical, Antrodiella faginea; settings: air-saturated 0.1 M Na-citrate-phosphate buffer, pH 5.5, 23 °C, O2 co-substrate, free enzyme

B1: SmL (Lac2), Steccherinum murashkinskyi laccase (Metuloidea murashkinskyi) (protein)
chain: AQIGPVTDLHITNANISPDGFSRPAVLAGGTFPGPTIAGNTGDNFQITVFNDLTDPSMLTDTSIHWHGLFQKGTNWADGPAFVTQCPIITGQSFDYNFNVPGQAGTFWYHSHLSTQYCDGLRGPFVVYDPNDPNASLYDVDDDTTIITLADWYHTLAQQEPIGAAITADATLINGLGRSFTNTTASPLSVITVQSGKRYRMRLVSISCDPNYLFSIDGHDMTIIEVDGVNSQQLTVDQIQIFAAQRYSFVLNANQPVGNYWIRAQPNSGGQGFDGGINSAILRYEGATVEDPTTTAPTTFSNPLVETDLHPLADLGVPGQPFRGGADDPLVLNLAFANGRFSIDGVSFVPPTVPVLLQILSGAQNAQDLLPAGSVISLPSNSVIEVALPAGAAGGPHPFHLHGHNFAVVQSANNATPNYVNPIWRDTVSIGGTGDNVTIRFTTNNPGPWFLHCHIDWHLEAGFAIVFAEDIPDTASANPVPQAWSDLCPAYDQAHNISTATRQDFQILCICGILHVNFRQEERCGIS
notes: native secreted enzyme purified from culture liquid
B1 showed a Km [1] of 71.7 ± 2.9 µM, a kcat [1] of 33.3 ± 1.4 s⁻¹ and a kcat/Km [1] of 460000 M⁻¹ s⁻¹.

B2: AfL (LacA), Antrodiella faginea laccase (Antrodiella faginea) (protein)
chain: AIGPVADLKIVNANIQPDGFTRPAVLAGGTFPGPLIKGNKGDNFQLNVIDELENEDMLKSTSIHWHGFFQHGTNWADGPAFVNQCPITTGHSFLYNFHVPDQAGTFWYHSHLSTQYCDGLRGPMVVYDPHDPLKQLYDVDDESTVMTLADWYHTLARQEPPGPVTPDSTLINGLGRAPGQTTPSELAVLTVKRGTRYRIRLINISCEPNYHYSIDNHDLTVIEADGVSTQSLTVSSLTIFAGQRYSFILNANQPVGNYWIRAQPNDAADVTFNGGINSAILRYEGAPVAEPNTTAGPDNTPLLEVNIRPFVFTPVPGQPHAGGADFVKNLLFSFNGTNFQVDNVSFVPPTVPILLQILSGAHTAQDLMPAGSIIPLPKNAVIEFSMPGGVVGGGHPIHLHGHNFWVIRSANSSVYNYNDPVIRDVVNIGTTGDNVTIRFETNNPGPWFLHCHIDWHLDLGFAVVMAEDIPDAAAANPVPAAWNELCPLYDALTPGNQ
notes: as for B1
In the case of B2, the Km [2] is reported as 4.9 ± 0.4 µM, the kcat [2] is reported as 32.7 ± 1.1 s⁻¹ and the kcat/Km [2] is reported as 6.67e+06 M⁻¹ s⁻¹.
